Reference: patent US20220089698A1 (published 2022)

How the values were obtained:
Cyno FcγRIIB = biological target: T1, Cyno FcγRIIB (cynomolgus macaque, UniProt A0A140HDN4 43-217); assay: SPR (Biacore 4000), antibody amine coupled to CM4 chip, receptor as analyte, steady-state fit
T1 construct: also called cynomolgus macaque FcγRIIB
T1 sequence: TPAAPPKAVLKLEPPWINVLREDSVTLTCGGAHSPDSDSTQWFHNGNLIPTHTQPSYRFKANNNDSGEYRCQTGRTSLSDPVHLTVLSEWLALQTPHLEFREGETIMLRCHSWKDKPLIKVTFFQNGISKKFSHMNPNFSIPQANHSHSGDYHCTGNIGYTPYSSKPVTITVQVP

Cyno FcγRIIA = biological target: T2, Cyno FcγRIIA (cynomolgus macaque, UniProt A0A140HDM9 28-216); assay: as above
T2 construct: also called cynomolgus macaque FcγRIIA
T2 sequence: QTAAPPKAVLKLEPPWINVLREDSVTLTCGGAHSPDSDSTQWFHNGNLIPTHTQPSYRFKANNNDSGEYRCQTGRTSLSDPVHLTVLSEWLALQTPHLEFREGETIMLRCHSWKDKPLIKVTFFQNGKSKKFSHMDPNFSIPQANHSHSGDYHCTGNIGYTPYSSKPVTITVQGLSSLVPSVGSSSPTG

HIV gp120 CAAN [1] = biological target: HIV gp120 CAAN (HIV-1)
HIV gp120 Bal [2] = biological target: HIV gp120 Bal (HIV-1)
HIV gp120 REJO = HIV gp120 REJO (HIV-1)
HIV gp120 CAAN [3] = biological target: HIV gp120 CAAN (HIV); assay: single-point ELISA; also: test concentration or dose not given here
HIV gp120 Bal [4] = biological target: HIV gp120 Bal (HIV); assay: single-point ELISA; also: test concentration or dose not given here

B1: Antibody A-1 (antibody, human IgG1, kappa)
heavy: QVQLLQSGAAVTKPGASVRVSCEASGYNIRDYFIHWWRQAPGQGLQWVGWINPKTGQPNNPRQFQGRVSLTRHASWDFDTFSFYMDLKALRSDDTAVYFCARQRSDYWDFDVWGSGTQVTVSSASTKGPSVFPLAPSSKSTSGGTAALGCLVKDYFPEPVTVSWNSGALTSGVHTFPAVLQSSGLYSLSSVVTVPSSSLGTQTYICNVNHKPSNTKVDKKVEPKSCDKTHTCPPCPAPELLAGPDVFLFPPKPKDTLMISRTPEVTCVVVDVSHEDPEVKFNWYVDGVEVHNAKTKPREEQYNSTYRVVSVLTVLHQDWLNGKEYKCKVSNKALPLPEEKTISKAKGQPREPQVYTLPPSREEMTKNQVSLTCLVKGFYPSDIAVEWESNGQPENNYKTTPPVLDSDGSFFLYSKLTVDKSRWQQGNVFSCSVLHEALHSHYTQKSLSLSPGK
light: DIQMTQSPSSLSASVGDTVTITCQANGYLNWYQQRRGKAPKLLIYDGSKLERGVPSRFSGRRWGQEYNLTINNLQPEDIATYFCQVYEFVVPGTRLDLKRTVAAPSVFIFPPSDEQLKSGTASVVCLLNNFYPREAKVQWKVDNALQSGNSQESVTEQDSKDSTYSLSSTLTLSKADYEKHKVYACEVTHQGLSSPVTKSFNRGEC
Binder B1 has a Kd (Cyno FcγRIIB) of 240 nM, a Kd (Cyno FcγRIIA) of 1100 nM and an EC50 (HIV gp120 CAAN [1]) of 2.17 nM. The EC50 (HIV gp120 Bal [2]) was 0.06 nM and the EC50 (HIV gp120 REJO) was 2.37 nM.

B2: 1.9.1-1 (antibody, human IgG1, kappa)
heavy: QVQLVQSGAEVKKPGASVRVSCKASGYNIRDYFIHWWRQAPGQGLQWVGWINPKTGQPNNPRQFQGRVSLTRHASWDFDTFSFYMDLKALRSDDTAVYFCARQRSDYWDFDVWGSGTQVTVSSASTKGPSVFPLAPSSKSTSGGTAALGCLVKDYFPEPVTVSWNSGALTSGVHTFPAVLQSSGLYSLSSVVTVPSSSLGTQTYICNVNHKPSNTKVDKKVEPKSCDKTHTCPPCPAPELLAGPDVFLFPPKPKDTLMISRTPEVTCVVVDVSHEDPEVKFNWYVDGVEVHNAKTKPREEQYNSTYRVVSVLTVLHQDWLNGKEYKCKVSNKALPLPEEKTISKAKGQPREPQVYTLPPSREEMTKNQVSLTCLVKGFYPSDIAVEWESNGQPENNYKTTPPVLDSDGSFFLYSKLTVDKSRWQQGNVFSCSVLHEALHSHYTQKSLSLSPGK
light: DIQMTQSPSSLSASVGDTVTITCQANGYLNWYQQRRGKAPKLLIYDGSKLERGVPSRFSGRRWGQEYNLTINNLQPEDIATYFCQVYEFVVPGTRLDLKRTVAAPSVFIFPPSDEQLKSGTASVVCLLNNFYPREAKVQWKVDNALQSGNSQESVTEQDSKDSTYSLSSTLTLSKADYEKHKVYACEVTHQGLSSPVTKSFNRGEC
With B2 the “ELISA (A450)” value (HIV gp120 CAAN [3]) was 0.98 A450 and the “ELISA (A450)” value (HIV gp120 Bal [4]) was 1.08 A450.

B3: 1.7.1-1 (antibody, human IgG1, kappa)
heavy: QVQLLQSGAEVKKPGASVRVSCEASGYNIRDYFIHWWRQAPGQGLQWVGWINPKTGQPNNPRQFQGRVSLTRHASWDFDTFSFYMDLKALRSDDTAVYFCARQRSDYWDFDVWGSGTQVTVSSASTKGPSVFPLAPSSKSTSGGTAALGCLVKDYFPEPVTVSWNSGALTSGVHTFPAVLQSSGLYSLSSVVTVPSSSLGTQTYICNVNHKPSNTKVDKKVEPKSCDKTHTCPPCPAPELLAGPDVFLFPPKPKDTLMISRTPEVTCVVVDVSHEDPEVKFNWYVDGVEVHNAKTKPREEQYNSTYRVVSVLTVLHQDWLNGKEYKCKVSNKALPLPEEKTISKAKGQPREPQVYTLPPSREEMTKNQVSLTCLVKGFYPSDIAVEWESNGQPENNYKTTPPVLDSDGSFFLYSKLTVDKSRWQQGNVFSCSVLHEALHSHYTQKSLSLSPGK
light: DIQMTQSPSSLSASVGDTVTITCQANGYLNWYQQRRGKAPKLLIYDGSKLERGVPSRFSGRRWGQEYNLTINNLQPEDIATYFCQVYEFVVPGTRLDLKRTVAAPSVFIFPPSDEQLKSGTASVVCLLNNFYPREAKVQWKVDNALQSGNSQESVTEQDSKDSTYSLSSTLTLSKADYEKHKVYACEVTHQGLSSPVTKSFNRGEC
In the case of B3, the “ELISA (A450)” value (HIV gp120 CAAN [3]) is reported as 1.04 A450 and the “ELISA (A450)” value (HIV gp120 Bal [4]) is reported as 0.98 A450.

B4: 1.8.1-1 (antibody, human IgG1, kappa)
heavy: QVQLVQSGAEVTKPGASVRVSCEASGYNIRDYFIHWWRQAPGQGLQWVGWINPKTGQPNNPRQFQGRVSLTRHASWDFDTFSFYMDLKALRSDDTAVYFCARQRSDYWDFDVWGSGTQVTVSSASTKGPSVFPLAPSSKSTSGGTAALGCLVKDYFPEPVTVSWNSGALTSGVHTFPAVLQSSGLYSLSSVVTVPSSSLGTQTYICNVNHKPSNTKVDKKVEPKSCDKTHTCPPCPAPELLAGPDVFLFPPKPKDTLMISRTPEVTCVVVDVSHEDPEVKFNWYVDGVEVHNAKTKPREEQYNSTYRVVSVLTVLHQDWLNGKEYKCKVSNKALPLPEEKTISKAKGQPREPQVYTLPPSREEMTKNQVSLTCLVKGFYPSDIAVEWESNGQPENNYKTTPPVLDSDGSFFLYSKLTVDKSRWQQGNVFSCSVLHEALHSHYTQKSLSLSPGK
light: DIQMTQSPSSLSASVGDTVTITCQANGYLNWYQQRRGKAPKLLIYDGSKLERGVPSRFSGRRWGQEYNLTINNLQPEDIATYFCQVYEFVVPGTRLDLKRTVAAPSVFIFPPSDEQLKSGTASVVCLLNNFYPREAKVQWKVDNALQSGNSQESVTEQDSKDSTYSLSSTLTLSKADYEKHKVYACEVTHQGLSSPVTKSFNRGEC
B4 was tested, and the “ELISA (A450)” value (HIV gp120 CAAN [3]) was 0.9 A450 and the “ELISA (A450)” value (HIV gp120 Bal [4]) was 0.86 A450.

B5: 1.11.1-1 (antibody, human IgG1, kappa)
heavy: QVQLLQSGAAVTKPGASVRVSCEASGYNIRDYFMHWWRQAPGQGLQWVGWINPKTGQPNNPRQFQGRVSLTRHASWDFDTFSAYMDLKALRSDDTAVYFCARQRSDYWDFDVWGSGTQVTVSSASTKGPSVFPLAPSSKSTSGGTAALGCLVKDYFPEPVTVSWNSGALTSGVHTFPAVLQSSGLYSLSSVVTVPSSSLGTQTYICNVNHKPSNTKVDKKVEPKSCDKTHTCPPCPAPELLAGPDVFLFPPKPKDTLMISRTPEVTCVVVDVSHEDPEVKFNWYVDGVEVHNAKTKPREEQYNSTYRVVSVLTVLHQDWLNGKEYKCKVSNKALPLPEEKTISKAKGQPREPQVYTLPPSREEMTKNQVSLTCLVKGFYPSDIAVEWESNGQPENNYKTTPPVLDSDGSFFLYSKLTVDKSRWQQGNVFSCSVLHEALHSHYTQKSLSLSPGK
light: DIQMTQSPSSLSASVGDTVTITCQANGYLNWYQQRRGKAPKLLIYDGSKLERGVPSRFSGRRWGQEYNLTINNLQPEDIATYFCQVYEFVVPGTRLDLKRTVAAPSVFIFPPSDEQLKSGTASVVCLLNNFYPREAKVQWKVDNALQSGNSQESVTEQDSKDSTYSLSSTLTLSKADYEKHKVYACEVTHQGLSSPVTKSFNRGEC
In the case of B5, the “ELISA (A450)” value (HIV gp120 CAAN [3]) is reported as 0.75 A450 and the “ELISA (A450)” value (HIV gp120 Bal [4]) is reported as 0.93 A450.

B6: 1.10.1-1 (antibody, human IgG1, kappa)
heavy: QVQLLQSGAAVTKPGASVRVSCEASGYNIRDYFMHWWRQAPGQGLQWVGWINPKTGQPNNPRQFQGRVSLTRHASWDFDTFSFYMDLKALRSDDTAVYFCARQRSDYWDFDVWGSGTQVTVSSASTKGPSVFPLAPSSKSTSGGTAALGCLVKDYFPEPVTVSWNSGALTSGVHTFPAVLQSSGLYSLSSVVTVPSSSLGTQTYICNVNHKPSNTKVDKKVEPKSCDKTHTCPPCPAPELLAGPDVFLFPPKPKDTLMISRTPEVTCVVVDVSHEDPEVKFNWYVDGVEVHNAKTKPREEQYNSTYRVVSVLTVLHQDWLNGKEYKCKVSNKALPLPEEKTISKAKGQPREPQVYTLPPSREEMTKNQVSLTCLVKGFYPSDIAVEWESNGQPENNYKTTPPVLDSDGSFFLYSKLTVDKSRWQQGNVFSCSVLHEALHSHYTQKSLSLSPGK
light: DIQMTQSPSSLSASVGDTVTITCQANGYLNWYQQRRGKAPKLLIYDGSKLERGVPSRFSGRRWGQEYNLTINNLQPEDIATYFCQVYEFVVPGTRLDLKRTVAAPSVFIFPPSDEQLKSGTASVVCLLNNFYPREAKVQWKVDNALQSGNSQESVTEQDSKDSTYSLSSTLTLSKADYEKHKVYACEVTHQGLSSPVTKSFNRGEC
With B6 the “ELISA (A450)” value (HIV gp120 CAAN [3]) was 0.94 A450 and the “ELISA (A450)” value (HIV gp120 Bal [4]) was 0.95 A450.

B7: 1.6.1-1 (antibody, human IgG1, kappa)
heavy: QVQLLQSGAEVTKPGASVRVSCEASGYNIRDYFIHWWRQAPGQGLQWVGWINPKTGQPNNPRQFQGRVSLTRHASWDFDTFSFYMDLKALRSDDTAVYFCARQRSDYWDFDVWGSGTQVTVSSASTKGPSVFPLAPSSKSTSGGTAALGCLVKDYFPEPVTVSWNSGALTSGVHTFPAVLQSSGLYSLSSVVTVPSSSLGTQTYICNVNHKPSNTKVDKKVEPKSCDKTHTCPPCPAPELLAGPDVFLFPPKPKDTLMISRTPEVTCVVVDVSHEDPEVKFNWYVDGVEVHNAKTKPREEQYNSTYRVVSVLTVLHQDWLNGKEYKCKVSNKALPLPEEKTISKAKGQPREPQVYTLPPSREEMTKNQVSLTCLVKGFYPSDIAVEWESNGQPENNYKTTPPVLDSDGSFFLYSKLTVDKSRWQQGNVFSCSVLHEALHSHYTQKSLSLSPGK
light: DIQMTQSPSSLSASVGDTVTITCQANGYLNWYQQRRGKAPKLLIYDGSKLERGVPSRFSGRRWGQEYNLTINNLQPEDIATYFCQVYEFVVPGTRLDLKRTVAAPSVFIFPPSDEQLKSGTASVVCLLNNFYPREAKVQWKVDNALQSGNSQESVTEQDSKDSTYSLSSTLTLSKADYEKHKVYACEVTHQGLSSPVTKSFNRGEC
B7 was tested, and the “ELISA (A450)” value (HIV gp120 CAAN [3]) was 0.9 A450 and the “ELISA (A450)” value (HIV gp120 Bal [4]) was 0.95 A450.
